Test results reported in patent US20250018052A1 (CHIA TAI TIANQING PHARMACEUTICAL GROUP, published 2025).

B1: Patritumab-eribulin-D2 (antibody, human IgG1, kappa, V domains shown)
VH: QVQLQQWGAGLLKPSETLSLTCAVYGGSFSGYYWSWIRQPPGKGLEWIGEINHSGSTNYNPSLKSRVTISVETSKNQFSLKLSSVTAADTAVYYCARDKWTWYFDLWGRGTLVTVSS
VL: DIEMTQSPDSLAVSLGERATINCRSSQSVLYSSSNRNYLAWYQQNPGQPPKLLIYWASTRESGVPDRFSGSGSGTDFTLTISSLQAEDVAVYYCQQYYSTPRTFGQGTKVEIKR
modifications: MC-GGFG-eribulin (compound III-1) conjugated to cysteine sulfhydryls freed by TCEP reduction of the antibody's disulfide bonds; positions not given; average DAR 2.6 per antibody
notes: also called patritumab-eribulin conjugate with a DAR of 2.6
B2: Patritumab (antibody, human IgG1, kappa, V domains shown)
VH: B1 VH
VL: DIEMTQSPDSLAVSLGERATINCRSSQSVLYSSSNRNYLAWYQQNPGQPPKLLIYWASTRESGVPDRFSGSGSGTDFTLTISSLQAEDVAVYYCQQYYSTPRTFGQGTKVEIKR
notes: Naked antibody expressed in Expi-CHO cells and purified by Protein A; also called fully human anti-HER3 monoclonal antibody
B3: Patritumab-eribulin-D8 (antibody, human IgG1, kappa, V domains shown)
VH: B1 VH
VL: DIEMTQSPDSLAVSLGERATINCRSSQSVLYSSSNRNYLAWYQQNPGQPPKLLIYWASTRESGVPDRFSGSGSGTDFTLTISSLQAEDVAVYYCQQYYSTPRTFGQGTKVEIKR
modifications: MC-GGFG-eribulin (compound III-1) conjugated to cysteine sulfhydryls freed by TCEP reduction of the antibody's disulfide bonds; positions not given; average DAR 7.6 per antibody
notes: also called patritumab-eribulin conjugate with a DAR of 7.6
B4: Patritumab-DDDXd-D8 (antibody, human IgG1, kappa, V domains shown)
VH: B1 VH
VL: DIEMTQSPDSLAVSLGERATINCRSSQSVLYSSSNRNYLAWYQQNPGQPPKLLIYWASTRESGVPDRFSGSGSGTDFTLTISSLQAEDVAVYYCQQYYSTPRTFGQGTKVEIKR
modifications: MC-GGFG-DDDXd (deuterated MC-GGFG-DXd) conjugated to cysteine sulfhydryls freed by TCEP reduction of the antibody's disulfide bonds; positions not given; average DAR 7.9 per antibody
notes: also called patritumab-DDDXd conjugate with a DAR of 7.9; patritumab-DDDX-D8
B5: Patritumab-eribulin-D4 (antibody, human IgG1, kappa, V domains shown)
VH: B1 VH
VL: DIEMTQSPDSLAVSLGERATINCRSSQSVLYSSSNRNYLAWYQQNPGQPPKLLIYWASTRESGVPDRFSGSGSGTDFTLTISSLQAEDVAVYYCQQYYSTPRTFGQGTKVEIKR
modifications: MC-GGFG-eribulin (compound III-1) conjugated to cysteine sulfhydryls freed by TCEP reduction of the antibody's disulfide bonds; positions not given; average DAR 4.0-4.2 per antibody
notes: also called patritumab-eribulin conjugate with DAR of 4.0-4.2

Tests used:
[1] = target: T1, HER3 (human epidermal growth factor receptor 3) (human, UniProt P21860 20-1342); assay: cell-based or functional assay
[2] = target: T1, HER3 (human epidermal growth factor …); assay: FACS (MFI) on SW620 cells, low HER3 expression; anti-human IgG-Fc-PE secondary
Experimental: (§1) The cells were incubated at 4° C. for 60 min and centrifuged at 1000 rpm for 5 min. […] The cells were washed 3 times with pre-cooled PBS (pH 7.4) and resuspended in 100 μL of PBS (pH 7.4), and then the fluorescence signals were analyzed and detected using a flow cytometer (Sartorius, iQUE). […] Data were analyzed using GraphPad Prism5.

[3] = target: T1, HER3 (human epidermal growth factor …); assay: FACS (MFI) on BT474 cells, high HER3 expression; anti-human IgG-Fc-PE secondary
Experimental: as §1

[4] = target: T1, HER3 (human epidermal growth factor …); assay: FACS (MFI) on MCF-7 cells, high HER3 expression; anti-human IgG-Fc-PE secondary
Experimental: as §1

[5] = target: T1, HER3 (human epidermal growth factor …); assay: FACS (MFI) on HCC1569 cells, high HER3 expression; anti-human IgG-Fc-PE secondary
Experimental: as §1

[6] = target: T1, HER3 (human epidermal growth factor …); assay: FACS (MFI) on JIMT-1 cells, medium HER3 expression; anti-human IgG-Fc-PE secondary
Experimental: as §1

[7] = target: T1, HER3 (human epidermal growth factor …); assay: FACS (MFI) on MDA-MB-468 cells, medium HER3 expression; anti-human IgG-Fc-PE secondary
Experimental: as §1

Binder	Endocytosis EC50 (nM), BT474 cells, pHrodo Green-labelled anti-human IgG Fc, FACS [1] [nM]	Endocytosis EC50 (nM), MCF-7 cells, pHrodo Green-labelled anti-human IgG Fc, FACS [1] [nM]	Endocytosis EC50 (nM), NCI-N87 cells, pHrodo Green-labelled anti-human IgG Fc, FACS [1] [nM]	EC50 [2] [nM]	EC50 [3] [nM]	EC50 [4] [nM]	EC50 [5] [nM]	EC50 [6] [nM]	EC50 [7] [nM]
B1	1.07	0.58	4.5	1.89	3.05	0.855	1.42	1.59	1.56
B2	0.821	0.509	–	1.47	3.02	0.807	–	1.51	1.3
B3	0.931	1.25	9.46	1.74	2.85	1.02	1.49	1.73	3.31
B4	0.859	0.869	56.8	1.37	2.68	0.77	1.16	1.3	1.7
B5	0.962	0.797	4.72	1.28	2.78	0.932	1.49	1.04	1.67
